One data set has as its target interferon gamma (IFN-γ) (human, UniProt P01579 24-166). Nature of the data set: electrochemistry (SWV, on-chip bead-bound aptamer); 1 mM Mg2+, 5 mM K+; from calibration-curve midpoint (100 pg/mL) (so in the source); Buffer C: 100 mM Tris-HCl pH 7.4, 100 mM NaCl, 1 mM MgCl2, 5 mM KCl; room temperature (optimized conditions stated as pH 7.5, 100 mM salt). The note with it: protein: recombinant; chain copies: 2; label: 5'-ferrocene; 3'-biotin (on streptavidin magnetic beads); hairpin.

A further data set deals with PSA (UniProt P07288 25-261). Nature of the data set: electrochemistry (on-chip bead-bound aptamer); 1 mg/mL; no significant signal (<15%); Buffer C: 100 mM Tris-HCl pH 7.4, 100 mM NaCl, 1 mM MgCl2, 5 mM KCl; room temperature (optimized conditions stated as pH 7.5, 100 mM salt). The note with it: protein: commercial; label: 5'-ferrocene; 3'-biotin (on streptavidin magnetic beads); hairpin.

Another data set deals with TNF-α (UniProt P01375 77-233). As to the kind of experiment: electrochemistry (on-chip bead-bound aptamer); 1 ng/mL; no significant signal (<15%); Buffer C: 100 mM Tris-HCl pH 7.4, 100 mM NaCl, 1 mM MgCl2, 5 mM KCl; room temperature (optimized conditions stated as pH 7.5, 100 mM salt). The note with it: protein: commercial; chain copies: 3; label: 5'-ferrocene; 3'-biotin (on streptavidin magnetic beads); hairpin.

The target in another data set is IL-6 (UniProt P05231 30-212). The description is as above. The note with it: protein: commercial; label: 5'-ferrocene; 3'-biotin (on streptavidin magnetic beads); hairpin.
Chain of IL-6 (P05231 30-212): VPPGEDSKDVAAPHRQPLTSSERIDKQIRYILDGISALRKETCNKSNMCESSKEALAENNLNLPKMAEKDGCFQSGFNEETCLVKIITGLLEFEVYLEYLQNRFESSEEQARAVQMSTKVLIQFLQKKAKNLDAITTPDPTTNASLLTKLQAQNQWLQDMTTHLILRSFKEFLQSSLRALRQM

Chain of interferon gamma (IFN-γ) (P01579 24-166): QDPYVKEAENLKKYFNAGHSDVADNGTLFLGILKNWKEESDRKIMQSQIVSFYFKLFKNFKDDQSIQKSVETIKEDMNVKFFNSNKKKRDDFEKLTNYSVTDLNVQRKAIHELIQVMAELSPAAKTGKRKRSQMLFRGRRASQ
Chain of TNF-α (P01375 77-233): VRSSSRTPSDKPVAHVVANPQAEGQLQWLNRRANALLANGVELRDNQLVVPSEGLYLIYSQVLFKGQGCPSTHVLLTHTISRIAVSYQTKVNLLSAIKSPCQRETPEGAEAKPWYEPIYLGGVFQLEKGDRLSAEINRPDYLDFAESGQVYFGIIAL
Chain of PSA (P07288 25-261): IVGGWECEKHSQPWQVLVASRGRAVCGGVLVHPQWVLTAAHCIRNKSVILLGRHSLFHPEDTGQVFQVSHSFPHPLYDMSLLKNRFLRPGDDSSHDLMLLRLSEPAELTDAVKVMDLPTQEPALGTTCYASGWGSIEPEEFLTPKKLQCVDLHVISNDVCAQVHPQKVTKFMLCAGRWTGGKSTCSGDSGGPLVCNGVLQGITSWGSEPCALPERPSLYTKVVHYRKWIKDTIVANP

B1: Fc-labeled IFN-γ hairpin aptamer (MB-aptamer) (structured_DNA)
DNA: GGGGTTGGTTGTGTTGGGTGTTGTGTCCAACCCC
Regarding B1, in the data set with interferon gamma (IFN-γ), the Ka is around 2.1e+10 M⁻¹. The binding result with PSA, in the data set with TNF-α and in the data set with IL-6 was “no binding” each time.

The values are drawn from PMC6799845, “On-chip structure-switching aptamer-modified magnetic nanobeads for the continuous monitoring of interferon-gamma ex vivo”.
